Laboratory results taken from patent publication US20220211812A1 (Bristol-Myers Squibb, published 2022).

T1: human RXFP1 receptor (human, UniProt Q9HBX9 1-757)
T1 sequence (looked up): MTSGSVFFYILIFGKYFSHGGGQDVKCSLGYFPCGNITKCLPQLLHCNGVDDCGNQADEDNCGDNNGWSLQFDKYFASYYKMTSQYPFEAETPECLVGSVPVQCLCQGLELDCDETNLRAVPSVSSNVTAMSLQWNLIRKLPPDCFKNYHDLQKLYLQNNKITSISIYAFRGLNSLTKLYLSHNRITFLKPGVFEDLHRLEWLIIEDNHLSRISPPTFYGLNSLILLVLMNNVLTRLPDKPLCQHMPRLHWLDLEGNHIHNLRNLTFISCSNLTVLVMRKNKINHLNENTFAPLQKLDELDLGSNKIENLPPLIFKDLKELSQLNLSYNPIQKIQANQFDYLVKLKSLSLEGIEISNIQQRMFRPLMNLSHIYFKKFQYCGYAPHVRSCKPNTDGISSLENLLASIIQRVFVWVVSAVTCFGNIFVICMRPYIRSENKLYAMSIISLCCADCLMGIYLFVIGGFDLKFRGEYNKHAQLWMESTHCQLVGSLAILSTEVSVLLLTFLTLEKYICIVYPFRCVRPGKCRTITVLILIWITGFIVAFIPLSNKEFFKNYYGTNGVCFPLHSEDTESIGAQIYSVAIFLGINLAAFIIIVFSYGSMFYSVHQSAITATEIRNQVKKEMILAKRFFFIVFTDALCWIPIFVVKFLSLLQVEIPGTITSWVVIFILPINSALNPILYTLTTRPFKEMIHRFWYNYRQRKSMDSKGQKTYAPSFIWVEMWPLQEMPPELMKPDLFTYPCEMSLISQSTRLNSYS

B1: AQ1-EEEEPEEEEPEEEEPEEEE-Glu^γ-C15-CH3 (ligand)
chain 1: XLYSALANKCCHVGCTKRSLARFC
chain 2: ASWMEEVIKLCGRELVRAQIAICGMSTWS
peptide: EEEEPEEEEPEEEEPEEEEE
modifications: not fully specified; Glu^γ bonded by amide to fatty acid -C15-CH3; oxime-linked to pAcF of the A chain; pAcF (para-acetyl-L-phenylalanine) at position 1, oxime-linked to PK enhancer EEEEPEEEEPEEEEPEEEE-Glu^γ-C15-CH3
B2: AQ1-EEEEEE-Glu^γ-C15-COOH (ligand)
chain 1: XLYSALANKCCHVGCTKRSLARFC
chain 2: ASWMEEVIKLCGRELVRAQIAICGMSTWS
peptide: EEEEEEE
modifications: not fully specified; Glu^γ bonded by amide to fatty acid -C15-COOH; oxime-linked to pAcF of the A chain; pAcF (para-acetyl-L-phenylalanine) at position 1, oxime-linked to PK enhancer EEEEEE-Glu^γ-C15-COOH
B3: AQ1-KKKGGG-Glu^γ-C13-COOH (ligand)
chain 1: XLYSALANKCCHVGCTKRSLARFC
chain 2: ASWMEEVIKLCGRELVRAQIAICGMSTWS
peptide: KKKGGGE
modifications: not fully specified; Glu^γ bonded by amide to fatty acid -C13-COOH; oxime-linked to pAcF of the A chain; pAcF (para-acetyl-L-phenylalanine) at position 1, oxime-linked to PK enhancer KKKGGG-Glu^γ-C13-COOH
B4: AQ1-EEEEGEEEEGEEEEGEEEE-Gluγ-C14-CH3 (ligand)
chain 1: XLYSALANKCCHVGCTKRSLARFC
chain 2: ASWMEEVIKLCGRELVRAQIAICGMSTWS
peptide: EEEEGEEEEGEEEEGEEEEE
modifications: not fully specified; Glu^γ bonded by amide to fatty acid -C14-CH3; oxime-linked to pAcF of the A chain; pAcF (para-acetyl-L-phenylalanine) at position 1, oxime-linked to PK enhancer EEEEGEEEEGEEEEGEEEE-Gluγ-C14-CH3
B5: AQ1-GSHHHHHGS-Glu^γ-C13-COOH (ligand)
chain 1: XLYSALANKCCHVGCTKRSLARFC
chain 2: ASWMEEVIKLCGRELVRAQIAICGMSTWS
peptide: GSHHHHHGSE
modifications: not fully specified; Glu^γ bonded by amide to fatty acid -C13-COOH; oxime-linked to pAcF of the A chain; pAcF (para-acetyl-L-phenylalanine) at position 1, oxime-linked to PK enhancer GSHHHHHGS-Glu^γ-C13-COOH
B6: AQ1-GGGGS-Glu^γ-C15-COOH (ligand)
chain 1: XLYSALANKCCHVGCTKRSLARFC
chain 2: ASWMEEVIKLCGRELVRAQIAICGMSTWS
peptide: GGGGSE
modifications: not fully specified; Glu^γ bonded by amide to fatty acid -C15-COOH; oxime-linked to pAcF of the A chain; pAcF (para-acetyl-L-phenylalanine) at position 1, oxime-linked to PK enhancer GGGGS-Glu^γ-C15-COOH
B7: AQ1-Sar-Sar-Sar-Sar-Ser-Glu^γ-C13-COOH (ligand)
chain 1: XLYSALANKCCHVGCTKRSLARFC
chain 2: ASWMEEVIKLCGRELVRAQIAICGMSTWS
peptide: XXXXSE
modifications: not fully specified; Sar = sarcosine (N-methylglycine); Glu^γ bonded by amide to fatty acid -C13-COOH; oxime-linked to pAcF of the A chain; pAcF (para-acetyl-L-phenylalanine) at position 1, oxime-linked to PK enhancer Sar-Sar-Sar-Sar-Ser-Glu^γ-C13-COOH
B8: AQ1-EEEEPEEEEPEEEEPEEGGG-C14-CH3 (ligand)
chain 1: XLYSALANKCCHVGCTKRSLARFC
chain 2: ASWMEEVIKLCGRELVRAQIAICGMSTWS
peptide: EEEEPEEEEPEEEEPEEGGG
modifications: linked to fatty acid -C14-CH3; oxime-linked to pAcF of the A chain; pAcF (para-acetyl-L-phenylalanine) at position 1, oxime-linked to PK enhancer EEEEPEEEEPEEEEPEEGGG-C14-CH3
B9: AQ1-EEEGGG-dGlu^γ-C13-COOH (ligand)
chain 1: XLYSALANKCCHVGCTKRSLARFC
chain 2: ASWMEEVIKLCGRELVRAQIAICGMSTWS
peptide: EEEGGGE
modifications: not fully specified; dGlu^γ = D-glutamic acid (gamma), linked to fatty acid -C13-COOH; oxime-linked to pAcF of the A chain; pAcF (para-acetyl-L-phenylalanine) at position 1, oxime-linked to PK enhancer EEEGGG-dGlu^γ-C13-COOH
B10: AQ1-KKKKKK-Glu^γ-C13-COOH (ligand)
chain 1: XLYSALANKCCHVGCTKRSLARFC
chain 2: ASWMEEVIKLCGRELVRAQIAICGMSTWS
peptide: KKKKKKE
modifications: not fully specified; Glu^γ bonded by amide to fatty acid -C13-COOH; oxime-linked to pAcF of the A chain; pAcF (para-acetyl-L-phenylalanine) at position 1, oxime-linked to PK enhancer KKKKKK-Glu^γ-C13-COOH
B11: AQ1-EEEGGG-Glu^γ-C13-CH3 (ligand)
chain 1: XLYSALANKCCHVGCTKRSLARFC
chain 2: ASWMEEVIKLCGRELVRAQIAICGMSTWS
peptide: EEEGGGE
modifications: not fully specified; Glu^γ bonded by amide to fatty acid -C13-CH3; oxime-linked to pAcF of the A chain; pAcF (para-acetyl-L-phenylalanine) at position 1, oxime-linked to PK enhancer EEEGGG-Glu^γ-C13-CH3
B12: AQ1-EEEGGG-Glu^γ-C17-COOH (ligand)
chain 1: XLYSALANKCCHVGCTKRSLARFC
chain 2: ASWMEEVIKLCGRELVRAQIAICGMSTWS
peptide: EEEGGGE
modifications: not fully specified; Glu^γ bonded by amide to fatty acid -C17-COOH; oxime-linked to pAcF of the A chain; pAcF (para-acetyl-L-phenylalanine) at position 1, oxime-linked to PK enhancer EEEGGG-Glu^γ-C17-COOH
B13: AQ1-DRDDRD-C13-COOH (ligand)
chain 1: XLYSALANKCCHVGCTKRSLARFC
chain 2: ASWMEEVIKLCGRELVRAQIAICGMSTWS
peptide: DRDDRD
modifications: linked to fatty acid -C13-COOH; oxime-linked to pAcF of the A chain; pAcF (para-acetyl-L-phenylalanine) at position 1, oxime-linked to PK enhancer DRDDRD-C13-COOH
B14: AQ1-EESGGSGG-Glu^γ-C13-COOH (ligand)
chain 1: XLYSALANKCCHVGCTKRSLARFC
chain 2: ASWMEEVIKLCGRELVRAQIAICGMSTWS
peptide: EESGGSGGE
modifications: not fully specified; Glu^γ bonded by amide to fatty acid -C13-COOH; oxime-linked to pAcF of the A chain; pAcF (para-acetyl-L-phenylalanine) at position 1, oxime-linked to PK enhancer EESGGSGG-Glu^γ-C13-COOH
B15: AQ1-EGGGGSK-Glu^γ-C13-COOH (ligand)
chain 1: XLYSALANKCCHVGCTKRSLARFC
chain 2: ASWMEEVIKLCGRELVRAQIAICGMSTWS
peptide: EGGGGSKE
modifications: not fully specified; Glu^γ bonded by amide to fatty acid -C13-COOH; oxime-linked to pAcF of the A chain; pAcF (para-acetyl-L-phenylalanine) at position 1, oxime-linked to PK enhancer EGGGGSK-Glu^γ-C13-COOH
B16: AQ1-EEEGGG-Glu^γ-C15-COOH (ligand)
chain 1: XLYSALANKCCHVGCTKRSLARFC
chain 2: ASWMEEVIKLCGRELVRAQIAICGMSTWS
peptide: EEEGGGE
modifications: not fully specified; Glu^γ bonded by amide to fatty acid -C15-COOH; oxime-linked to pAcF of the A chain; pAcF (para-acetyl-L-phenylalanine) at position 1, oxime-linked to PK enhancer EEEGGG-Glu^γ-C15-COOH
B17: AQ1-Sar-Sar-Sar-Sar-Ser-Sar-Sar-Sar-Sar-Glu^γ-C13-COOH (ligand)
chain 1: XLYSALANKCCHVGCTKRSLARFC
chain 2: ASWMEEVIKLCGRELVRAQIAICGMSTWS
peptide: XXXXSXXXXE
modifications: not fully specified; Sar = sarcosine (N-methylglycine); Glu^γ bonded by amide to fatty acid -C13-COOH; oxime-linked to pAcF of the A chain; pAcF (para-acetyl-L-phenylalanine) at position 1, oxime-linked to PK enhancer Sar-Sar-Sar-Sar-Ser-Sar-Sar-Sar-Sar-Glu^γ-C13-COOH
B18: AQ1-KKSGGSGGEE-Glu^γ-C13-COOH (ligand)
chain 1: XLYSALANKCCHVGCTKRSLARFC
chain 2: ASWMEEVIKLCGRELVRAQIAICGMSTWS
peptide: KKSGGSGGEEE
modifications: not fully specified; Glu^γ bonded by amide to fatty acid -C13-COOH; oxime-linked to pAcF of the A chain; pAcF (para-acetyl-L-phenylalanine) at position 1, oxime-linked to PK enhancer KKSGGSGGEE-Glu^γ-C13-COOH
B19: AQ1-dKdKdKdKdKdK-Glu^γ-C13-COOH (ligand)
chain 1: XLYSALANKCCHVGCTKRSLARFC
chain 2: ASWMEEVIKLCGRELVRAQIAICGMSTWS
peptide: KKKKKKE
modifications: not fully specified; dK = D-lysine (six); Glu^γ bonded by amide to fatty acid -C13-COOH; oxime-linked to pAcF of the A chain; pAcF (para-acetyl-L-phenylalanine) at position 1, oxime-linked to PK enhancer dKdKdKdKdKdK-Glu^γ-C13-COOH
B20: AQ1-GGGEEE-Glu^γ-C13-COOH (ligand)
chain 1: XLYSALANKCCHVGCTKRSLARFC
chain 2: ASWMEEVIKLCGRELVRAQIAICGMSTWS
peptide: GGGEEEE
modifications: not fully specified; Glu^γ bonded by amide to fatty acid -C13-COOH; oxime-linked to pAcF of the A chain; pAcF (para-acetyl-L-phenylalanine) at position 1, oxime-linked to PK enhancer GGGEEE-Glu^γ-C13-COOH

Molecular target: T1, human RXFP1 receptor
Assay: cell-based or functional assay

Binder	hRXFP1/CHO-K1 cAMP EC50 (nM, avg)
B1	0.34 nM
B2	11.1 nM
B3	0.09 nM
B4	0.67 nM
B5	0.28 nM
B6	1.55 nM
B7	0.32 nM
B8	0.16 nM
B9	1.91 nM
B10	0.08 nM
B11	0.38 nM
B12	10.5 nM
B13	0.32 nM
B14	0.83 nM
B15	0.31 nM
B16	5.26 nM
B17	0.39 nM
B18	0.16 nM
B19	0.1 nM
B20	0.22 nM
